Measured values published in paper PMC10786891, “Massively parallel profiling of RNA-targeting CRISPR-Cas13d”.

T1: EsCas13d, nuclease-dead (Eubacterium siraeum, UniProt B0MS50, R295A;H300A;R849A;H854A)
T1 sequence: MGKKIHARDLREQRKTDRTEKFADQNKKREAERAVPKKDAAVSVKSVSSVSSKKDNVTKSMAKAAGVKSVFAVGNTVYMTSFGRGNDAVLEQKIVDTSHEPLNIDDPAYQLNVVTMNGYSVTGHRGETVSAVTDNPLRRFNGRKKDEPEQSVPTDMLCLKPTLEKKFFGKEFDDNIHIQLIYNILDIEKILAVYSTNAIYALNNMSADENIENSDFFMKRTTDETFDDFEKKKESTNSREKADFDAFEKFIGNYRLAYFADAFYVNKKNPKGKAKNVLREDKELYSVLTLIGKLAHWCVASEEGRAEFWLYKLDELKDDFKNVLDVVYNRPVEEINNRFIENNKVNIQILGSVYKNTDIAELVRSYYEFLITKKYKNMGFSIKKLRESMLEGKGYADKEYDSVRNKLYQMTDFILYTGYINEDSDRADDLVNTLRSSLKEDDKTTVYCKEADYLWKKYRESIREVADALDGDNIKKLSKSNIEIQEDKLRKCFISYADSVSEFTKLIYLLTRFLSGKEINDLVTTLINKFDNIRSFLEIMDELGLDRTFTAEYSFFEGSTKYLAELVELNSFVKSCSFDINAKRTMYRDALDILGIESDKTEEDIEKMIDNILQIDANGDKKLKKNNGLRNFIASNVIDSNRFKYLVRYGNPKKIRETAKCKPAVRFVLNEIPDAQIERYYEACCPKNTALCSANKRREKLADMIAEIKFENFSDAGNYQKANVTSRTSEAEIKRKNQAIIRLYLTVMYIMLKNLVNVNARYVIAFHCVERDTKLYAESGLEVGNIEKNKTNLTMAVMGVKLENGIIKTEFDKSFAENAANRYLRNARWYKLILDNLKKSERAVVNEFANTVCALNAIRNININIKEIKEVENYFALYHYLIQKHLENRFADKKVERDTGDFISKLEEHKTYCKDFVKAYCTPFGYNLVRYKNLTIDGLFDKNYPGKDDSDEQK


Biological target: T1, EsCas13d, nuclease-dead
Test: crRNA (strand 1, pre-loaded); Mg2+; 40 mM Tris-HCl pH 7.5, 150 mM NaCl, 6 mM MgCl2, 1 mM DTT, 0.1% Tween-20, 0.2 mg/ml BSA; 25 C; 10 min per concentration, then washed
Details: tags: His6-TwinStrep-SUMO cleaved; N-terminal SNAP kept (SNAP-Surface 488); label: 3' end held by stalled T7 RNA polymerase

Binder	Kd
target 1 G5U,C7A (mixed) RNA 1: CACCCGUGCAAAAAUGCAGGGGUCUAAAACUGAGCGGAUAACCUCUCUAUGG RNA 2: GGGAAUGGAUCCACAUCUACGAAUUCGUACCAUAGAGAGGUUAUACUCUCACCGAGAUCGGAAGAGCACACGU	56 ± 9 nM
target 1 insA 3' of 21,insA 3' of 13 (mixed) RNA 1: CACCCGUGCAAAAAUGCAGGGGUCUAAAACUGAGCGGAUAACCUCUCUAUGG RNA 2: GGGAAUGGAUCCACAUCUACGAAUUCGUACCAAUAGAGAGAGUUAUCCGCUCACCGAGAUCGGAAGAGCACACGU	11.7 ± 0.7 nM
target 1 insA 3' of 17,insU 3' of 16 (mixed) RNA 1: CACCCGUGCAAAAAUGCAGGGGUCUAAAACUGAGCGGAUAACCUCUCUAUGG RNA 2: GGGAAUGGAUCCACAUCUACGAAUUCGUACCAUAGAAUGAGGUUAUCCGCUCACCGAGAUCGGAAGAGCACACGU	38 ± 8 nM
target 1 insC 3' of 18,insC 3' of 9 (mixed) RNA 1: CACCCGUGCAAAAAUGCAGGGGUCUAAAACUGAGCGGAUAACCUCUCUAUGG RNA 2: GGGAAUGGAUCCACAUCUACGAAUUCGUACCAUACGAGAGGUUACUCCGCUCACCGAGAUCGGAAGAGCACACGU	58 ± 8 nM
target 1 insA 3' of 19,insG 3' of 9 (mixed) RNA 1: CACCCGUGCAAAAAUGCAGGGGUCUAAAACUGAGCGGAUAACCUCUCUAUGG RNA 2: GGGAAUGGAUCCACAUCUACGAAUUCGUACCAUAAGAGAGGUUAGUCCGCUCACCGAGAUCGGAAGAGCACACGU	37 ± 4 nM
target 1 insC 3' of 11,insA 3' of 10 (mixed) RNA 1: CACCCGUGCAAAAAUGCAGGGGUCUAAAACUGAGCGGAUAACCUCUCUAUGG RNA 2: GGGAAUGGAUCCACAUCUACGAAUUCGUACCAUAGAGAGGUCUAAUCCGCUCACCGAGAUCGGAAGAGCACACGU	30 ± 4 nM
target 1 insA 3' of 22,insG 3' of 11 (mixed) RNA 1: CACCCGUGCAAAAAUGCAGGGGUCUAAAACUGAGCGGAUAACCUCUCUAUGG RNA 2: GGGAAUGGAUCCACAUCUACGAAUUCGUACACAUAGAGAGGUGUAUCCGCUCACCGAGAUCGGAAGAGCACACGU	42 ± 8 nM
target 1 U11A,C21A (mixed) RNA 1: CACCCGUGCAAAAAUGCAGGGGUCUAAAACUGAGCGGAUAACCUCUCUAUGG RNA 2: GGGAAUGGAUCCACAUCUACGAAUUCGUACAAUAGAGAGGAUAUCCGCUCACCGAGAUCGGAAGAGCACACGU	64 ± 24 nM
target 1 insU 3' of 13,insA 3' of 2 (mixed) RNA 1: CACCCGUGCAAAAAUGCAGGGGUCUAAAACUGAGCGGAUAACCUCUCUAUGG RNA 2: GGGAAUGGAUCCACAUCUACGAAUUCGUACCAUAGAGAGUGUUAUCCGCUCAACCGAGAUCGGAAGAGCACACGU	16.2 ± 1.8 nM
target 1 G15U,C22A (mixed) RNA 1: CACCCGUGCAAAAAUGCAGGGGUCUAAAACUGAGCGGAUAACCUCUCUAUGG RNA 2: GGGAAUGGAUCCACAUCUACGAAUUCGUAACAUAGAUAGGUUAUCCGCUCACCGAGAUCGGAAGAGCACACGU	40 ± 6 nM
target 1 insA 3' of 15,insU 3' of 13 (mixed) RNA 1: CACCCGUGCAAAAAUGCAGGGGUCUAAAACUGAGCGGAUAACCUCUCUAUGG RNA 2: GGGAAUGGAUCCACAUCUACGAAUUCGUACCAUAGAGAAGUGUUAUCCGCUCACCGAGAUCGGAAGAGCACACGU	19 ± 4 nM
target 1 insA 3' of 22,insG 3' of 10 (mixed) RNA 1: CACCCGUGCAAAAAUGCAGGGGUCUAAAACUGAGCGGAUAACCUCUCUAUGG RNA 2: GGGAAUGGAUCCACAUCUACGAAUUCGUACACAUAGAGAGGUUGAUCCGCUCACCGAGAUCGGAAGAGCACACGU	55 ± 13 nM
target 1 insC 3' of 15,insA 3' of 8 (mixed) RNA 1: CACCCGUGCAAAAAUGCAGGGGUCUAAAACUGAGCGGAUAACCUCUCUAUGG RNA 2: GGGAAUGGAUCCACAUCUACGAAUUCGUACCAUAGAGCAGGUUAUACCGCUCACCGAGAUCGGAAGAGCACACGU	20.1 ± 2.1 nM
target 1 insA 3' of 21,insG 3' of 6 (mixed) RNA 1: CACCCGUGCAAAAAUGCAGGGGUCUAAAACUGAGCGGAUAACCUCUCUAUGG RNA 2: GGGAAUGGAUCCACAUCUACGAAUUCGUACCAAUAGAGAGGUUAUCCGGCUCACCGAGAUCGGAAGAGCACACGU	22.1 ± 2.3 nM
target 1 insU 3' of 13,insC 3' of 1 (mixed) RNA 1: CACCCGUGCAAAAAUGCAGGGGUCUAAAACUGAGCGGAUAACCUCUCUAUGG RNA 2: GGGAAUGGAUCCACAUCUACGAAUUCGUACCAUAGAGAGUGUUAUCCGCUCACCCGAGAUCGGAAGAGCACACGU	21 ± 4 nM
target 1 insC 3' of 20,insG 3' of 7 (mixed) RNA 1: CACCCGUGCAAAAAUGCAGGGGUCUAAAACUGAGCGGAUAACCUCUCUAUGG RNA 2: GGGAAUGGAUCCACAUCUACGAAUUCGUACCACUAGAGAGGUUAUCGCGCUCACCGAGAUCGGAAGAGCACACGU	8.8 ± 0.4 nM
target 1 insA 3' of 15,insA 3' of 7 (mixed) RNA 1: CACCCGUGCAAAAAUGCAGGGGUCUAAAACUGAGCGGAUAACCUCUCUAUGG RNA 2: GGGAAUGGAUCCACAUCUACGAAUUCGUACCAUAGAGAAGGUUAUCACGCUCACCGAGAUCGGAAGAGCACACGU	4.65 ± 0.17 nM
target 1 insU 3' of 21,insC 3' of 11 (mixed) RNA 1: CACCCGUGCAAAAAUGCAGGGGUCUAAAACUGAGCGGAUAACCUCUCUAUGG RNA 2: GGGAAUGGAUCCACAUCUACGAAUUCGUACCUAUAGAGAGGUCUAUCCGCUCACCGAGAUCGGAAGAGCACACGU	81 ± 21 nM
target 1 U8G,C21A (mixed) RNA 1: CACCCGUGCAAAAAUGCAGGGGUCUAAAACUGAGCGGAUAACCUCUCUAUGG RNA 2: GGGAAUGGAUCCACAUCUACGAAUUCGUACAAUAGAGAGGUUAGCCGCUCACCGAGAUCGGAAGAGCACACGU	54 ± 11 nM
target 1 U8G,A16G (mixed) RNA 1: CACCCGUGCAAAAAUGCAGGGGUCUAAAACUGAGCGGAUAACCUCUCUAUGG RNA 2: GGGAAUGGAUCCACAUCUACGAAUUCGUACCAUAGGGAGGUUAGCCGCUCACCGAGAUCGGAAGAGCACACGU	39.4 ± 3.5 nM
target 1 U11C,C22U (mixed) RNA 1: CACCCGUGCAAAAAUGCAGGGGUCUAAAACUGAGCGGAUAACCUCUCUAUGG RNA 2: GGGAAUGGAUCCACAUCUACGAAUUCGUAUCAUAGAGAGGCUAUCCGCUCACCGAGAUCGGAAGAGCACACGU	21.2 ± 1.7 nM
target 1 insC 3' of 10,insG 3' of 4 (mixed) RNA 1: CACCCGUGCAAAAAUGCAGGGGUCUAAAACUGAGCGGAUAACCUCUCUAUGG RNA 2: GGGAAUGGAUCCACAUCUACGAAUUCGUACCAUAGAGAGGUUCAUCCGCGUCACCGAGAUCGGAAGAGCACACGU	8.6 ± 0.4 nM
target 1 insU 3' of 13,insG 3' of 1 (mixed) RNA 1: CACCCGUGCAAAAAUGCAGGGGUCUAAAACUGAGCGGAUAACCUCUCUAUGG RNA 2: GGGAAUGGAUCCACAUCUACGAAUUCGUACCAUAGAGAGUGUUAUCCGCUCAGCCGAGAUCGGAAGAGCACACGU	11.7 ± 1.7 nM
target 1 A16C,U19C (mixed) RNA 1: CACCCGUGCAAAAAUGCAGGGGUCUAAAACUGAGCGGAUAACCUCUCUAUGG RNA 2: GGGAAUGGAUCCACAUCUACGAAUUCGUACCACAGCGAGGUUAUCCGCUCACCGAGAUCGGAAGAGCACACGU	94 ± 21 nM
target 1 insA 3' of 10,insU 3' of 9 (mixed) RNA 1: CACCCGUGCAAAAAUGCAGGGGUCUAAAACUGAGCGGAUAACCUCUCUAUGG RNA 2: GGGAAUGGAUCCACAUCUACGAAUUCGUACCAUAGAGAGGUUAAUUCCGCUCACCGAGAUCGGAAGAGCACACGU	13.9 ± 0.5 nM
target 1 insU 3' of 15,insU 3' of 15 (mixed) RNA 1: CACCCGUGCAAAAAUGCAGGGGUCUAAAACUGAGCGGAUAACCUCUCUAUGG RNA 2: GGGAAUGGAUCCACAUCUACGAAUUCGUACCAUAGAGUUAGGUUAUCCGCUCACCGAGAUCGGAAGAGCACACGU	17.6 ± 1.2 nM
target 1 C2A,U11A (mixed) RNA 1: CACCCGUGCAAAAAUGCAGGGGUCUAAAACUGAGCGGAUAACCUCUCUAUGG RNA 2: GGGAAUGGAUCCACAUCUACGAAUUCGUACCAUAGAGAGGAUAUCCGCUAACCGAGAUCGGAAGAGCACACGU	21.6 ± 1.4 nM
target 1 insG 3' of 8,insU 3' of 7 (mixed) RNA 1: CACCCGUGCAAAAAUGCAGGGGUCUAAAACUGAGCGGAUAACCUCUCUAUGG RNA 2: GGGAAUGGAUCCACAUCUACGAAUUCGUACCAUAGAGAGGUUAUGCUCGCUCACCGAGAUCGGAAGAGCACACGU	14.1 ± 0.5 nM
